Experimental data taken from patent US20240294624A1, “ANTI-ERYTHROPOIETIN ANTIBODY” (ANDREMACON S.R.L., priority 2021, published 2024).

Assays:
HOC84 = test: MTT cell viability assay; type: cell-based, human; details: 96 hours, 6 μg/ml
From the text: N. Human ovarian Cell (HOC) cultured in stem cell condition. In particular, HOC84 stem cells were obtained by digestion and cell isolation form a patient-derived xenograft (PDX) model from a high grade serous epithelial ovarian cancer, obtained by serial passages in nude mice.

primary GECs = test: MTT cell viability assay; type: cell-based, human; details: 96 hours, anti-EPO (C4) 6 μg/ml, TMZ 100 μM, FTY720 100 nM
From the text: B. Primary glioblastoma endothelial cells (GECs).

K562 [1] = test: MTT cell viability assay; type: cell-based, human; details: 96 hours, 6 μg/ml
From the text: H. Myelogenous leukemia cell line (K562); chronic myeloid leukemia cells. Circulating […] levels are reliably higher in myelodysplastic syndromes than in healthy people, with a negative predictive role;

cancer cells = test: Neutralizing anti-EPO bioassay (MTT); type: cell-based; details: nineteen anti-EPO hybridoma culture supernatants compared; 96 h
Procedure: The cell-based assay was used to measure the capacity of each clone to neutralize EPO signaling. […] Optical density values (O.D.) were recorded, and neutralizing activity of each clone was expressed as percentage of viability of cells treated with clones respect to control condition, BM (FIG. 1A).The best n=3 final clones were selected and specific monoclonal antibodies were separated and purified in PBS at PH7.4 sterilized by membrane filtration (produced in culture supernatant and purified by Protein A/G). Furthermore, anti-EPO monoclonal antibodies were sequenced by the following protocol: total RNA was extracted separately from several batches of cultured hybridoma cells, cDNA were then synthesized by reverse transcription using oligo-dT primers, and VH and VL were finally amplified by PCR. VH and VL fragments, respectively amplified by IgG degenerate primers and Kappa-specific primers, are represented by gel electrophoresis (FIG. 1B), confirming that isotypes were IgG Kappa.

[2] = tested on: human tumor GSC-derived xenograft; test: Gene expression of GSC-derived xenograft after in vivo treatment; design: species or system mice; details: xenograft GSCs; RealTime PCR
Procedure: The analysis was performed by the assessment of gene expression profile on human tumor GSC-derived xenograft. Gene expression analysis were conducted by Real-Time PCR, run in triplicate, using 18S as endogenous control. Samples have been normalized to untreated CTRL. The analysis was conducted on genes related to FIG. 30A apoptosis, FIG. 30B inflammation, FIG. 30C proliferation.
Tissues were processed and total RNA was extracted following TRI-Reagent protocol and quantified with NanoDrop 1000 Spectro-photometer (Thermo Fisher Scientific). Reverse transcriptase reaction was executed using TranScriba Kit (A&A Biotechnology), loading 1 μg of RNA (A260/A280>1.8), according to manufacturer's instructions. qRT-PCR was performed using StepOnePlus™ (Thermo Fisher Scientific), 1 μg of cDNA, forward and reverse human primers (250 nM each) Titan HotTaq EvaGreen® qPCR Mix (Bioatlas). Data were normalized to 18S expression, used as endogenous control. Relative gene expression was determined using the 2-ΔΔCt method (FIG. 30).

A2780 = test: Caspase Glo 3/7 assay; type: cell-based, human
Procedure: (§1) Furthermore, cellular models were treated the above-mentioned pharmacological drugs and apoptotic effect was evaluated by caspase activity.
(§2) Data are expressed as the mean±standard deviation of at least 3 experiments in triplicate. *P<0.05 versus CTR for all treatments tested.

DLD1 = test: Caspase Glo 3/7 assay; type: cell-based, human
Procedure: as §1, §2

SHSY-5Y = test: Caspase Glo 3/7 assay; type: cell-based, human
Procedure: as §1, §2

PC-3 = test: Caspase Glo 3/7 assay; type: cell-based, human
Procedure: as §1, §2

K562 [3] = test: Caspase Glo 3/7 assay; type: cell-based, human
Procedure: as §1, §2

MCF-7 = test: Caspase Glo 3/7 assay; type: cell-based, human
Procedure: as §1, §2

LNCAP = test: Caspase Glo 3/7 assay; type: cell-based, human
Procedure: as §1, §2

[4] = tested on: anaplastic astrocytoma cancer stem cells; test: Caspase Glo 3/7 assay; type: cell-based, human
Procedure: as §1, §2

GBM-CSCs = test: Caspase Glo 3/7 assay; type: cell-based, human
Procedure: as §1, §2

GSCs = test: Caspase Glo 3/7 assay; type: cell-based, human
Procedure: as §1, §2

A549 = test: Caspase Glo 3/7 assay; type: cell-based, human
Procedure: as §1, §2

GECs = test: Caspase Glo 3/7 assay; type: cell-based, human
Procedure: as §1, §2

N9 microglia cells = test: Microglia proliferation and morphology after LPS; type: cell-based, murine; details: after LPS stimulation
Procedure: N9 microglial cells were seeded in multiwell plates at a concentration of 1.5×10^4 for 24 hours. The following day the cells were administered the following treatments for 24 hours: • LPS; • Anti-EPO (c4) antibody administered alone; • Anti-EPO (c4) antibody in combination with LPS • Anti-EPO (c4) antibody in combination with LPS and FTY720
N9 cells were detached with enzyme, and an aliquot of known volume was labeled with trypan blue and observed under the microscope for counting. Considering that the number of cells in the culture control, without any treatment, as being 100, the percentage of proliferation of N9 cultured in presence of LPS, anti-EPO (C4) antibody, combination of LPS and anti-EPO antibody was calculated (FIG. 15B).
N9 cells were cultured in Iscove's Modified Dulbecco's MEM, IMDM containing streptomycin/1× penicillin and 2 mM L-glutamine, supplemented with FBS (fetal bovine serum) at 5%. The cells were plated at a concentration of 1.5×10^4 cells/cm2 and kept in a thermostatic incubator at 37° C., with 5% C02, for 24 hours, as above. The next day, the cells were exposed to different treatments for 48 hours. At the end of the treatments, cell viability and proliferation were assessed by staining with trypan blue and observed under the microscope for counting.
The microglia were maintained in a basal culture medium and then activated with lipopolysaccharide (LPS). […]

B1: anti-EPO (C4): isolated anti-Erythropoietin monoclonal antibody, VL SEQ ID NO:6, VH SEQ ID NO:14, hybridoma DSM ACC 3370 (antibody, listed as Homo sapiens, V domains shown)
VH: EVKLQESGGGLVQPGGSLKLSCAASGFTFSTYTMSWVRQTPEKRLEWVAYISNGGDRTYYPDTVKGRFTISRDDAKNTLFLQMSSLKSEDTAMYYCARHNITTVPFTMDYWGQGTSVTVSS
VL: DIVLTQSPASLAVSLGQRATISCRASESVDYYGTGLMQWYQQRPGQPPKLLIYGASNVGSGVPARFSGSGSGTDFSLNIHPVEGDDIAMYFCQQTRKVPSTFGGGTKLEIK
modifications: VH amino acid sequence; VL amino acid sequence
In the case of B1, the “cells initially plated dead” value (HOC84) is reported as 68%, the “cells initially seeded dead” value (primary GECs) is reported as ~70% and the “cells initially plated dead” value (K562 [1]) is reported as 62%. For the same molecule, the “neutralizing activity (inhibition of cancer cell viability)” value (cancer cells) was “higher neutralizing activity”, the “gene expression on tumoral cells after in vivo treatment” value [2] was “induced inhibition cancer stem cell proliferation, increase apoptosis and inflammation” and the “increment of apoptosis (caspase 3/7 activation)” value (“increment of apoptosis” for short) (A2780) was 234%. The “increment of apoptosis” value (DLD1) was 217%, the “increment of apoptosis” value (SHSY-5Y) was 200% and the “increment of apoptosis” value (PC-3) was 243%. The “increment of apoptosis” value (K562 [3]) was 180%, the “increment of apoptosis” value (MCF-7) was 218% and the “increment of apoptosis” value (LNCAP) was 220%. The “increment of apoptosis” value [4] was 205%, the “increment of apoptosis” value (GBM-CSCs) was 210% and the “increment of apoptosis” value (GSCs) was 200%. For the same molecule, the “increment of apoptosis” value (A549) was 200%, the “increment of apoptosis” value (GECs) was 220% and the morphology of microglia (N9 microglia cells) was “recover or maintain a branched morphology”.
